This series addresses CREB1 (recombinant, Ni-affinity purified) (UniProt P16220 1-327). Nature of the series: EMSA; LightShift EMSA kit: 2 ul 5x binding buffer, 6 ul CREB1, 1 ul probe, 25 C, 20 min; salt and pH not stated. The settings on record: protein: recombinant; (Ni-chelating purification); chain copies: 2; label: 5' 6-FAM (FITC) on forward strand (Methods); blunt. On the technique in general: In EMSA bound probe runs differently from free probe, usually more slowly.

Chain of CREB1 (recombinant, Ni-affinity purified) (P16220 whole entry): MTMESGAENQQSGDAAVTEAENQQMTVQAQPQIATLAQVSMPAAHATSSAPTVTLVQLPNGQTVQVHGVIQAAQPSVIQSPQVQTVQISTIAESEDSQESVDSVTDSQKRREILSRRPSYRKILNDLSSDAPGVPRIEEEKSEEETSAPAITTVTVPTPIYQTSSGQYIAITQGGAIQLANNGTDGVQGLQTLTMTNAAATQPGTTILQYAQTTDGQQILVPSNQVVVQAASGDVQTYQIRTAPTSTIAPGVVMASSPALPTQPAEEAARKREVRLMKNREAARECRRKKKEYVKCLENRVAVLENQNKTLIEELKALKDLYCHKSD

B1: MITF-wt probe (dsDNA)
DNA 1: TGGATGTCTTTTCTGATGTGAAATTAAA
DNA 2: TTTAATTTCACATCAGAAAAGACATCCA
With B1, the binding result is reported as “binds”.

(Values after paper PMC9576935, “MiR-585-5p impedes gastric cancer proliferation and metastasis by orchestrating the interactions among CREB1, MAPK1 and MITF”.)
